# Measured values reported in publication PMC6677171, “Subunit interactions and arrangements in the fission yeast Mis16–Mis18–Mis19 complex” (Life Science Alliance, 2019).
# B1: Mis19C: Mis19 truncation including sites A, B, and C, residues 52–112 (protein)
# chain: PRVYETELLVLRFREFGVKDNHNHPINLHSLRSKSLIRAQGKKLDLHNRVFLRRNVRAVKM
# B2: Mis19: S. pombe Mis18 partner protein (protein)
# chain: MDLMPLEKARAIEIAFDNVFHNTKIPDNLQQFDAILKRLERRRFIPTENQKPRVYETELLVLRFREFGVKDNHNHPINLHSLRSKSLIRAQGKKLDLHNRVFLRRNVRAVKM
# Tests used:
# Mis16 = biological target: T1, Mis16 (Schizosaccharomyces pombe, UniProt O94244); assay: Co-expression and affinity pull-down/size-exclusion co-purification of Mis19 deletions with Mis16; assay type: binding, S. pombe; conditions: co-expressed in insect cells, Strep-Tactin tag on Mis16, gel filtration, SDS–PAGE band
# T1 construct: double-Strep-Tactin tag (TEV protease-cleavable) (N, cleaved yes); made in house; host or cells: insect cells (baculovirus made in Sf21, expression in Hi5)
# From the text: Figure 2. Mis16–Mis19 contact regions. (A) Crystal structure of Mis16–Mis19 highlighting the Mis19-binding sites. Three putative binding sites A, B, and C (lighter to darker orange from N terminus to C terminus) are indicated. (B) Schematic of the various deletion constructs of Mis19 are used for binding studies showing the positions of sites A, B, and C. (C) Constructs containing affinity-tagged Mis16 and the Mis19 deletions shown above were co-expressed and purified by affinity pull-down and size-exclusion chromatography. SDS–PAGE gel of peak fractions is shown. Asterisks indicate impurities. (D) Close-up of the A- and C-binding sites. The locations of the kis1-1 (R65) and eic1-1 (F102) t.s. mutant residues are shown.
# The C-terminal interaction of Mis19 with Mis16 (site C in our nomenclature) has been previously described ([An et al, 2018]). […] To test the contribution of the individual sites to the Mis16–Mis19 interaction, various truncated Mis19 constructs were designed, for which site A, […], or both A and C are missing (Fig 2B). Full-length Mis16 and Mis19C (includes sites A, B, and C, residues 52–112), construct 1 (includes site B and C, residues 66–112), construct 2 (includes binding site B, residues 66–99), and construct 3 (includes site A and B, residues 52–99) were co-expressed in insect cells, as the isolated Mis19 truncations cannot be expressed and purified. […]
# Cnp1–H4 = assay: Pull-down competition with full-length histones Cnp1–H4 (histone octamers); assay type: binding, S. pombe; conditions: incubation with Cnp1–H4–H2A–H2B octamers (molar excess); 25 mM Tris–HCl, pH 7.5, 500 mM NaCl, 5% glycerol, 1 mM TCEP, at least 1 h at 4°C; SDS–PAGE
# Procedure: We were unable to purify these directly as recombinant proteins, probably because of the lack of a suitable chaperone. […] As free Mis19 is extremely unstable, we tested if preformed Mis16–Mis19 dimers (full-length and N-terminally truncated, see sections below) could also interact with H4–Cnp1 by incubating them in a large molar excess of histone octamer.
# All proteins were expressed in insect cells using standard procedures. Genes were codon-optimised in all cases (GeneArt). Single protein constructs were cloned in pFastBac vectors (Invitrogen), whereas multi-protein complexes were cloned using the MultiBac system ([Fitzgerald et al, 2006]). The Mis16 protein carried a TEV protease-cleavable double-Strep-Tactin tag at the N terminus for purification purposes. All clones were sequence verified. Baculoviruses were generated and amplified using Sf21 cells, infected in Hi5 cells, and then further incubated at 27°C for 48 h. Harvested cells were lysed by sonication in buffer A containing 50 mM Tris–HCl, pH 7.5, 150 mM NaCl, 0.5 mM TCEP, benzonase nuclease (3 units/1 × 10^6 cells), 10% glycerol, and protease inhibitors cocktail set III (Calbiochem). […]
# All in vitro pull-down assays were performed using purified proteins or protein complexes. […] Input and pull-down elution samples were analysed by SDS–PAGE.
# T1 sequence (O94244 whole entry): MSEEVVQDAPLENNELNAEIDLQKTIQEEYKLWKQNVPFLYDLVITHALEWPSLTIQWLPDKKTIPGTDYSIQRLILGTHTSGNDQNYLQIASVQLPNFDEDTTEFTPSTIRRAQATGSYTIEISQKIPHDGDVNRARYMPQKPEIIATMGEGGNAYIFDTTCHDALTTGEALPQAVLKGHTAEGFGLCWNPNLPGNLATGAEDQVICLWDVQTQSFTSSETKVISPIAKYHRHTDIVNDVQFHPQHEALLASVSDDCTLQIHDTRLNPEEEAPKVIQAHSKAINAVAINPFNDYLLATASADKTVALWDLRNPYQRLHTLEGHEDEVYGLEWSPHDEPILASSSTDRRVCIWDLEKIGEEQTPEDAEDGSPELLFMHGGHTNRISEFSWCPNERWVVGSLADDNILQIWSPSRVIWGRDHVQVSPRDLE
Molecule,association with Mis16 (Mis16),interaction with Cnp1–H4 / histone transfer (Cnp1–H4)
B1,Mis19 is associated with Mis16,no histones can be transferred onto Strep-Mis16
B2,,completely inhibits histone transfer to Mis16
